T1: biotinylated human MIGIS-α peptide (human, biotinylated)
T1 peptide: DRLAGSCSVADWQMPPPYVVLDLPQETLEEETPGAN


Tests used:
[1] = target: T1, biotinylated human MIGIS-α peptide; experiment: SPR (Biacore T200, 37 C), biotinylated peptide captured, OAA as analyte, 1:1 fit
[2] = target: T2, biotinylated cyno MIGIS-α peptide (cynomolgus monkey); experiment: as above
T2 construct: domain: MIGIS-α

[3] = target: T1, biotinylated human MIGIS-α peptide; experiment: SPR, OAA format
[4] = target: T2, biotinylated cyno MIGIS-α peptide; experiment: SPR, OAA format
[5] = target: T3, human membrane IgA (mIgA), endogenously expressed on primary B cells and DAKIKI cells (human, UniProt P01876 1-398); experiment: cell-based or functional assay
[6] = target: T3, human membrane IgA (mIgA), endogenously …; experiment: cell-based or functional assay; remark: listed apart in the source
[7] = target: T3, human membrane IgA (mIgA), endogenously …; experiment: cell-based or functional assay; remark: listed apart in the source
[8] = target: T3, human membrane IgA (mIgA), endogenously …; experiment: cell-based or functional assay; remark: listed apart in the source
[9] = target: T3, human membrane IgA (mIgA), endogenously …; experiment: cell-based or functional assay; remark: listed apart in the source
[10] = target: T4, parental (IgA^-) Ramos cell line, which expresses only cell surface IgM (UniProt P01871 1-474); experiment: flow cytometry on parental Ramos cells
T4 construct: whole, on cells; Negative control cells without membrane IgA; also called mIgA negative Ramos cells; parental Ramos

[11] = target: T5, human membrane IgA overexpressed on Ramos cells (human); experiment: flow cytometry, cell binding on IgA+ Ramos cells; fit table under the plot
T5 construct: its MIGIS-α segment is the short form; also called IgA^+ Ramos; human IgA^+ RAMOS cells

[12] = target: T5, human membrane IgA overexpressed on …; experiment: flow cytometry, cell binding on IgA+ Ramos cells; fit table under the plot, unit from the y axis (gMFI minus secondary only)
[13] = target: T5, human membrane IgA overexpressed on …; experiment: flow cytometry on IgA+ Ramos cells

T5 sequence (heavy, as listed by the source): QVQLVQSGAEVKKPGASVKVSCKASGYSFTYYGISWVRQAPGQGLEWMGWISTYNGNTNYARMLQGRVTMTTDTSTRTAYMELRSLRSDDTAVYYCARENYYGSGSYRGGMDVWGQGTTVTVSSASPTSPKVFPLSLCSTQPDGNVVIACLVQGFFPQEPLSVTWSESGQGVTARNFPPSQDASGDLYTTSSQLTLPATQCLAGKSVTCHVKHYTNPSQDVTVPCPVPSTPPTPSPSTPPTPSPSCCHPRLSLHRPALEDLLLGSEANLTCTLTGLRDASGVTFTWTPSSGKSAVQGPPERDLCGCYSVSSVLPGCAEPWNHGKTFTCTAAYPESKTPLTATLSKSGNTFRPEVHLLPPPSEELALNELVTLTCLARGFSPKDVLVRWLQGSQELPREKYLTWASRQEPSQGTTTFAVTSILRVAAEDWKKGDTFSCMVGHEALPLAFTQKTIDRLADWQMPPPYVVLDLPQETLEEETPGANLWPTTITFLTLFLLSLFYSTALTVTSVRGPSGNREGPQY
T4 sequence (P01871 whole entry): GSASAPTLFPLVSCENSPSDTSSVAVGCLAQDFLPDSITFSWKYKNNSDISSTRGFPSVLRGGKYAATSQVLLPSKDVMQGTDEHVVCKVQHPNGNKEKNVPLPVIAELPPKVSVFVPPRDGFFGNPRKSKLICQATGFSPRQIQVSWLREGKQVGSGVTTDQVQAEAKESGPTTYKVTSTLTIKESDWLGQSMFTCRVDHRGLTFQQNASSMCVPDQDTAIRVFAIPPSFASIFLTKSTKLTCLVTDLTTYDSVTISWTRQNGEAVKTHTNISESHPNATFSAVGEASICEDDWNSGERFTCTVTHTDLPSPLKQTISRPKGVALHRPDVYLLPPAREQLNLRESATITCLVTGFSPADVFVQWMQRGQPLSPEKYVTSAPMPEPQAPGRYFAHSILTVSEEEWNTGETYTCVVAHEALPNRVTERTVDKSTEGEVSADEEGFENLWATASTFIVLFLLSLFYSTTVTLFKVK
T3 sequence (P01876 whole entry): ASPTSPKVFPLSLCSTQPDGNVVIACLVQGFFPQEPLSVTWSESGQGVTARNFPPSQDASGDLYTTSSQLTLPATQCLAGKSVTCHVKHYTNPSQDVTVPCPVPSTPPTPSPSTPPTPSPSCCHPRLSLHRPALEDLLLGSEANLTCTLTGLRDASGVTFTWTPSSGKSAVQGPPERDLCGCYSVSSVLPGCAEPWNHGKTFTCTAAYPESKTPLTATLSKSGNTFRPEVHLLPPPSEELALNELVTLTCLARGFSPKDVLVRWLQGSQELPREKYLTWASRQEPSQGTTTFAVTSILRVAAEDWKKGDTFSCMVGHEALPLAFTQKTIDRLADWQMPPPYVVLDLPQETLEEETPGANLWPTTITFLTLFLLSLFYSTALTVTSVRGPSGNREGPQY

| Binder | Kd [1] [nM] | koff [1] [s⁻¹] | kon [1] [M⁻¹ s⁻¹] | Kd [2] [nM] | koff [2] [s⁻¹] | kon [2] [M⁻¹ s⁻¹] | binding result [10] | EC50 [13] [nM] | mean fluorescence intensity at the top saturating concentration tested [13] [MFI] | other results |
| --- | --- | --- | --- | --- | --- | --- | --- | --- | --- | --- |
| GBT-IgA-0070 (H05 in one arm antibody format) (antibody, also called H05 OAA) heavy: not shown EPKSSDKTHTCPPCPAPEAAGAPSVFLFPPKPKDTLMISRTPEVTCVVVDVSHEDPEVKFNWYVDGVEVHNAKTKPREEQYNSTYRVVSVLTVLHQDWLNGKEYKCKVSNKALPAPIEKTISKAKGQPREPQVYTLPPCREEMTKNQVSLSCAVKGFYPSDIAVEWESNGQPENNYKTTPPVLDSDGSFFLVSKLTVDKSRWQQGNVFSCSVMHEALHNRYTQKSLSLSPGK light: not shown | 210 | 0.0222 | 105000 | 56 | 0.0154 | 275000 |  |  |  |  |
| GBT-IgA-1090 (antibody, One-armed antibody) heavy: not shown EPKSSDKTHTCPPCPAPEAAGAPSVFLFPPKPKDTLMISRTPEVTCVVVDVSHEDPEVKFNWYVDGVEVHNAKTKPREEQYNSTYRVVSVLTVLHQDWLNGKEYKCKVSNKALPAPIEKTISKAKGQPREPQVYTLPPCREEMTKNQVSLSCAVKGFYPSDIAVEWESNGQPENNYKTTPPVLDSDGSFFLVSKLTVDKSRWQQGNVFSCSVMHEALHNRYTQKSLSLSPGK light: not shown | 0.724 | 0.0015 | 2.06e+06 | 1.05 | 0.0013 | 1.27e+06 |  |  |  |  |
| GBT-IgA-1572 (antibody, One-armed antibody) heavy: not shown EPKSSDKTHTCPPCPAPEAAGAPSVFLFPPKPKDTLMISRTPEVTCVVVDVSHEDPEVKFNWYVDGVEVHNAKTKPREEQYNSTYRVVSVLTVLHQDWLNGKEYKCKVSNKALPAPIEKTISKAKGQPREPQVYTLPPCREEMTKNQVSLSCAVKGFYPSDIAVEWESNGQPENNYKTTPPVLDSDGSFFLVSKLTVDKSRWQQGNVFSCSVMHEALHNRYTQKSLSLSPGK light: not shown | 3.47 | 0.0028 | 818000 | 3.4 | 0.0018 | 548000 |  |  |  |  |
| GBT-IgA-1091 (antibody, One-armed antibody; also called one armed antibody version of GBT-IgA-1602; OAA of GBT-IgA-1179) heavy: not shown EPKSSDKTHTCPPCPAPEAAGAPSVFLFPPKPKDTLMISRTPEVTCVVVDVSHEDPEVKFNWYVDGVEVHNAKTKPREEQYNSTYRVVSVLTVLHQDWLNGKEYKCKVSNKALPAPIEKTISKAKGQPREPQVYTLPPCREEMTKNQVSLSCAVKGFYPSDIAVEWESNGQPENNYKTTPPVLDSDGSFFLVSKLTVDKSRWQQGNVFSCSVMHEALHNRYTQKSLSLSPGK light: not shown | 2.13 | 0.0028 | 1.32e+06 | 2.46 | 0.0023 | 953000 |  |  |  |  |
| GBT-IgA-0752 (GBT-IgA-0862 in one armed format) (antibody, also called one armed format of GBT-IgA-0862 and of GBT-IgA-1164) heavy: not shown EPKSSDKTHTCPPCPAPEAAGAPSVFLFPPKPKDTLMISRTPEVTCVVVDVSHEDPEVKFNWYVDGVEVHNAKTKPREEQYNSTYRVVSVLTVLHQDWLNGKEYKCKVSNKALPAPIEKTISKAKGQPREPQVYTLPPCREEMTKNQVSLSCAVKGFYPSDIAVEWESNGQPENNYKTTPPVLDSDGSFFLVSKLTVDKSRWQQGNVFSCSVMHEALHNRYTQKSLSLSPGK light: not shown | 0.665 | 0.0015 | 2.29e+06 | 0.795 | 0.0017 | 2.22e+06 |  |  |  | fold affinity difference against GBT-IgA-1091 [3]: ~3 fold; fold affinity gain over T18 [3]: ~16 fold; fold affinity difference against GBT-IgA-1091 [4]: ~3 fold; fold affinity gain over T18 [4]: ~14 fold |
| GBT-IgA-0836 (T18-NKp46 bsAb) (bispecific antibody) heavy 1: not shown light 1: not shown heavy 2: not shown light 2: DIQMTQTTSSLSASLGDRVTISCRASQDISNYLNWYQQKPDGTVKLLIYYTSRLHSGVPSRFSGSGSGTDYSLTINNLEQEDIATYFCQQGNTRPWTFGGGTKLEIKRTVAAPSVFIFPPSDEQLKSGTASVVCLLNNFYPREAKVQWKVDNALQSGNSQESVTEQDSKDSTYSLSSTLTLSKADYEKHKVYACEVTHQGLSSPVTKSFNRGEC |  |  |  |  |  |  |  |  |  | reduction of secreted IgA in PBMC supernatants at 300 nM (IgA ELISA) [5]: 15%; EC50 (nM), reduction in secreted IgA in human PBMC supernatants [6]: 980 nM; EC50 (nM), cytotoxicity against IgA^+ CD20^+ B cells by flow cytometry [7]: 0.457 nM |
| GBT-IgA-0661 (T18-CD3 bispecific EFN EE/RR huIgG1) (bispecific antibody) heavy 1: not shown light 1: not shown heavy 2: EVQLVESGGGLVQPGGSLRLSCAASGFTFSDYYMTWVRQAPGKGLEWVAFIRNQARGYTSDHNPSVKGRFTISRDNAKNSLYLQMNSLRAEDTAVYYCARDRPSYYVLDYWGQGTTVTVSSASTKGPSVFPLAPSSKSTSGGTAALGCLVKDYFPEPVTVSWNSGALTSGVHTFPAVLQSSGLYSLSSVVTVPSSSLGTQTYICNVNHKPSNTKVDKKVEPKSCEKTHTCPPCPAPEAAGAPSVFLFPPKPKDTLMISRTPEVTCVVVDVSHEDPEVKFNWYVDGVEVHNAKTKPREEQYNSTYRVVSVLTVLHQDWLNGKEYKCKVSNKALPAPIEKTISKAKGQPREPQVYTLPPSREEMTKNQVSLTCEVKGFYPSDIAVEWESNGQPENNYKTTPPVLDSDGSFFLYSKLTVDKSRWQQGNVFSCSVMHEALHNHYTQKSLSLSPGK light 2: DIQMTQSPSSLSASVGDRVTITCTSSQSLFNVRSQKNYLAWYQQKPGKAPKLLIYWASTRESGVPSRFSGSGSGTDFTLTISSLQPEDFATYYCKQSYDLFTFGGGTKVEIKRTVAAPSVFIFPPSDEQLKSGTASVVCLLNNFYPREAKVQWKVDNALQSGNSQESVTEQDSKDSTYSLSSTLTLSKADYEKHKVYACEVTHQGLSSPVTKSFNRGEC |  |  |  |  |  |  |  |  |  | reduction of secreted IgA in PBMC supernatants at 300 nM (IgA ELISA) [5]: 52%; EC50 (nM), reduction in secreted IgA in human PBMC supernatants [6]: 21.2 nM; EC50 (nM), cytotoxicity against IgA^+ CD20^+ B cells by flow cytometry [7]: 2.68 nM |
| GBT-IgA-1164, anti-MIGIS-α/CD3 bispecific antibody (bispecific antibody) heavy 1: not shown light 1: not shown heavy 2: EVQLVESGGGLVQPGGSLRLSCAASGFTFSDYYMTWVRQAPGKGLEWVAFIRNQARGYTSDHNPSVKGRFTISRDNAKNSLYLQMNSLRAEDTAVYYCARDRPSYYVLDYWGQGTTVTVSSASTKGPSVFPLAPSSKSTSGGTAALGCLVKDYFPEPVTVSWNSGALTSGVHTFPAVLQSSGLYSLSSVVTVPSSSLGTQTYICNVNHKPSNTKVDKKVEPKSCEKTHTCPPCPAPEAAGAPSVFLFPPKPKDTLMISRTPEVTCVVVDVSHEDPEVKFNWYVDGVEVHNAKTKPREEQYNSTYRVVSVLTVLHQDWLNGKEYKCKVSNKALPAPIEKTISKAKGQPREPQVYTLPPSREEMTKNQVSLTCEVKGFYPSDIAVEWESNGQPENNYKTTPPVLDSDGSFFLYSKLTVDKSRWQQGNVFSCSVMHEALHNHYTQKSLSLSPGK light 2: DIQMTQSPSSLSASVGDRVTITCTSSQSLFNVRSQKNYLAWYQQKPGKAPKLLIYWASTRESGVPSRFSGSGSGTDFTLTISSLQPEDFATYYCKQSYDLFTFGGGTKVEIKRTVAAPSVFIFPPSDEQLKSGTASVVCLLNNFYPREAKVQWKVDNALQSGNSQESVTEQDSKDSTYSLSSTLTLSKADYEKHKVYACEVTHQGLSSPVTKSFNRGEC |  |  |  |  |  |  |  |  |  | EC50 (nM), IgA^+ memory B cell kill [8]: 0.318 nM; EC50 (nM), IgA producing B cell kill [9]: 0.916 nM |
| GBT-IgA-0033 (H05) (antibody, V domains shown, Parental clone from naive library; huIgG1; also called HOS) VH: QVQLVESGGGVVQPGRSLRLSCAASGFTFSSYGMHWVRQAPGKGLEWVAVISYDGSNKYYADSVKGRFTISRDNSKNTLYLQMNSLRAEDTAVYYCAKLYGGNPEDAIDYWGRGTLVTVSS VL: not shown |  |  |  |  |  |  | no binding |  |  | EC50 [11]: 91.4 nM; Top [12]: 8440 gMFI |
| GBT-IgA-0035 (ET17) (antibody, V domains shown, Heavy constant region of the tested format is not tied to this name; also called E17) VH: EVQLLESGGGLVQPGGSLRLSCAASGFTFSRYAMSWVRQVPGKGLEWVSAITGSGSGTYYADPVKGRFTISRDNSKNTLYLQMNSLRAEDTAVYHCAKERSGSSSDYWGQGTLVTVSS VL: EIVLTQSPATLSLSPGERATLSCRASQTVGSHLAWYQQKPGQAPRLLIYEASNRATGIPPRFSGSGSGTDFTLTISSLEPEDFAVYYCQQRNNWPITFGQGTRLESKR |  |  |  |  |  |  | no binding | 11.9 | 23600 |  |
| GBT-IgA-0020 (15E7) (antibody, V domains shown) VH: EVQLLESGGGLVQPGGSLRLSCAASGFTFSSYAMSWVRQVPGKGLEWVSAITGSGSGTYYADPVKGRFTISRDNSKNTLYLQMNSLRAEDTAVYHCAKERSGSSSDYWGQGTLVTVSS VL: EIVLTQSPATLSLSPGERATLSCRASQTVSSYLAWYQQKPGQAPRLLIYEASNRATGIPPRFSGSGSGTDFTLTISSLEPEDFAVYYCQQRNNWPITFGQGTRLESKR |  |  |  |  |  |  | no binding | 64.5 | 23100 |  |
| GBT-IgA-0036 (ET18) (antibody, V domains shown, Heavy constant region of the tested format is not tied to this name; also called E18) VH: EVQLLESGGGLVQPGGSLRLSCAASGFTFSRYAMSWVRQVPGKGLEWVSAITGSGSGTYYADPVKGRFTISRDNSKNTLYLQMNSLRAEDTAVYHCAKERSGSSSDYWGQGTLVTVSS VL: EIVLTQSPATLSLSPGERATLSCRASQTVSSHLAWYQQKPGQAPRLLIYEASNRATGIPPRFSGSGSGTDFTLTISSLEPEDFAVYYCQQRNNWPITFGQGTRLESKR |  |  |  |  |  |  | no binding | 10.8 | 26100 |  |
| GBT-IgA-0034 (ET10) (antibody, V domains shown, Heavy constant region of the tested format is not tied to this name; also called E10) VH: EVQLLESGGGLVQPGGSLRLSCAASGFTFSSYAMSWVRQVPGKGLEWVSSITGSGGGTYYADPVKGRFTISRDNSKNTLYLQMNSLRAEDTAVYHCAKERSGSSSDYWGQGTLVTVSS VL: EIVLTQSPATLSLSPGERATLSCRASQTVRSHLAWYQQKPGQAPRLLIYEASNRATGIPPRFSGSGSGTDFTLTISSLEPEDFAVYYCQQRNNWPITFGQGTRLESKR |  |  |  |  |  |  | no binding | 27 | 22600 |  |
